T1: human IL-23 (IL-23-His-Biotin) (human, UniProt Q9NPF7 20-189; P29460 23-328, biotin label, site not stated)
T1 construct: Akesobio lot 20161209; His-tagged and biotinylated
T1 sequence (looked up) 1: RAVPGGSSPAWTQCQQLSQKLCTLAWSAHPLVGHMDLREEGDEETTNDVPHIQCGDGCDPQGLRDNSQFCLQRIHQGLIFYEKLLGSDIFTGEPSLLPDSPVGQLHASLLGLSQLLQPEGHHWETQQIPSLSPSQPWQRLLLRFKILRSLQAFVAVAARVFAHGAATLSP
T1 sequence (looked up) 2: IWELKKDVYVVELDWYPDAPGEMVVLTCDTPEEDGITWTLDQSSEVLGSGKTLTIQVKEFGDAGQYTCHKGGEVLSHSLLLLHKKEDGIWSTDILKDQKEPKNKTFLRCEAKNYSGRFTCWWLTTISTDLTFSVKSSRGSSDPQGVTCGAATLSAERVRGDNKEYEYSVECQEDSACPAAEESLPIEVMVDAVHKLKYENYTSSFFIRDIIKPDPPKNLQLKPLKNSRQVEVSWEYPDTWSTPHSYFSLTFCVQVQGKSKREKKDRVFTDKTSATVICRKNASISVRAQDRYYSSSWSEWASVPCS

T2: Human IL12 (His Tag) (human, UniProt P29459 23-219; P29460 23-328)
T2 construct: Bought His-tagged heterodimer
T2 sequence (looked up) 1: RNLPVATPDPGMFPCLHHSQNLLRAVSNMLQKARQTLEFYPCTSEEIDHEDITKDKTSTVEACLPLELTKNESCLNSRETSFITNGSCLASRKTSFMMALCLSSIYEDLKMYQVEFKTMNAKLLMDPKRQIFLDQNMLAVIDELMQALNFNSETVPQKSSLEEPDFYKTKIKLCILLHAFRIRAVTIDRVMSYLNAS
T2 sequence (looked up) 2: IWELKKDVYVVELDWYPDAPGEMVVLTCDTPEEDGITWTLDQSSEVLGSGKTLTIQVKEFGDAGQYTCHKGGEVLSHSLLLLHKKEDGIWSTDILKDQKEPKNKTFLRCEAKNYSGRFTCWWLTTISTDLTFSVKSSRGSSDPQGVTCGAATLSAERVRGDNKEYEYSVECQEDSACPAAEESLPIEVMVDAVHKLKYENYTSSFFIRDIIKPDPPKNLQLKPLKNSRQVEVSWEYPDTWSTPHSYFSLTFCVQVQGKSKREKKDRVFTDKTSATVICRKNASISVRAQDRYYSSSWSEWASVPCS


What was measured:
[1] = target: T1, human IL-23 (IL-23-His-Biotin); assay: FACS competition, IL-23-His-Biotin 2 µg/mL on 293T-IL-12Rβ1&IL-23R cells
Description: (§1) 200 μL of 1% PBSA was added into each sample, and the mixture was centrifuged at 700×g for 5 min to discard the supernatant. According to experiment design, correspondingly diluted antibody (highest final concentration of 30 μg/mL, 3-fold dilution, 8 concentrations in total) and human IL-23 (IL-23-His-Biotin, Akesobio, 20161209) (final concentration of 2 μg/mL) were mixed at a ratio of 1:1, and a blank control was set. The mixture of antibody and human IL23 was incubated on ice for 30 min and then added to the cell precipitate at 100 μL/sample. The resulting mixture was well mixed and incubated on ice for 60 min. 200 μL of 1% PBSA was added, and the mixture was centrifuged at 700×g for 5 min to discard the supernatant, and then washed twice. FITC Steptavidin (Biolegend, Cat. No.: 405202) was diluted at a ratio of 1:500 and added to each tube at 100 μL. The mixture was well mixed and incubated on ice for 40 min in the absence of light. 200 μL of 1% PBSA was added, and the mixture was centrifuged at 700×g for 5 min to discard the supernatant, and then washed twice. 1% PBSA was added at 200 μL/tube, and the cells were resuspended and transferred to a flow cytometry tube for testing.

Human IL12 (His Tag) [2] = target: T2, Human IL12 (His Tag); assay: FACS competition, IL-12-His 20 nM on 293T-IL-12Rβ1&IL-23R cells; antibody 30 µg/mL
Description: (§2) 200 μL of 1% PBSA was added into each sample, and the mixture was centrifuged at 700×g for 5 min to discard the supernatant. According to experiment design, correspondingly diluted antibody (highest final concentration of 30 μg/mL, 3-fold dilution, 8 concentrations in total) and human IL-12 (Sino Biological, Cat. No.: CT-050-H08H-20) (final concentration of 20 nM) were mixed at a ratio of 1:1, and a blank control was set. The mixture of antibody and human IL12 was incubated on ice for 30 min and then added to the cell precipitate at 100 μL/sample. The resulting mixture was well mixed and incubated on ice for 60 min 200 μL of 1% PBSA was added, and the mixture was centrifuged at 700×g for 5 min to discard the supernatant, and then washed twice. Alexa Fluor® 488 anti-His tag antibody (Biolegend, Cat. No.: 652509) was diluted at a ratio of 1:400 and added to each tube at 100 μL. The mixture was well mixed and incubated on ice for 40 min in the absence of light. 200 μL of 1% PBSA was added, and the mixture was centrifuged at 700×g for 5 min to discard the supernatant, and then washed twice. 1% PBSA was added at 200 μL/tube, and the cells were resuspended and transferred to a flow cytometry tube for testing.

Human IL12 (His Tag) [3] = target: T2, Human IL12 (His Tag); assay: FACS competition, IL-12-His 20 nM on 293T-IL-12Rβ1&IL-23R cells; antibody 0.37 µg/mL
Description: as §2

[4] = target: T1, human IL-23 (IL-23-His-Biotin); assay: FACS competition, IL-23-His-Biotin 2 µg/mL on 293T-IL-12Rβ1&IL-23R cells; antibody 30 µg/mL
Description: as §1

[5] = target: T1, human IL-23 (IL-23-His-Biotin); assay: FACS competition, IL-23-His-Biotin 2 µg/mL on 293T-IL-12Rβ1&IL-23R cells; antibody 0.01 µg/mL
Description: as §1

[6] = target: T1, human IL-23 (IL-23-His-Biotin); assay: FACS competition, IL-23-His-Biotin 2 µg/mL on 293T-IL-12Rβ1&IL-23R cells; antibody 0.04 µg/mL
Description: as §1

[7] = target: T1, human IL-23 (IL-23-His-Biotin); assay: FACS competition, IL-23-His-Biotin 2 µg/mL on 293T-IL-12Rβ1&IL-23R cells; antibody 0.12 µg/mL
Description: as §1

[8] = target: T1, human IL-23 (IL-23-His-Biotin); assay: FACS competition, IL-23-His-Biotin 2 µg/mL on 293T-IL-12Rβ1&IL-23R cells; antibody 1.11 µg/mL
Description: as §1

[9] = target: T1, human IL-23 (IL-23-His-Biotin); assay: FACS competition, IL-23-His-Biotin 2 µg/mL on 293T-IL-12Rβ1&IL-23R cells; antibody 3.33 µg/mL
Description: as §1

Row | Binder | EC50 [1] [µg/mL] | MFI (Human IL12 (His Tag) [2]) [MFI] | MFI (Human IL12 (His Tag) [3]) [MFI] | MFI [4] [MFI] | MFI [5] [MFI] | MFI [6] [MFI] | MFI [7] [MFI] | MFI [8] [MFI] | MFI [9] [MFI]
1 | ustekinumab (antibody, V domains shown) VH: EVQLVQSGAEVKKPGESLKISCKGSGYSFTTYWLGWVRQMPGKGLDWIGIMSPVDSDIRYSPSFQGQVTMSVDKSITTAYLQWNSLKASDTAMYYCARRRPGQGYFDFWGQGTLVTVSS VL: DIQMTQSPSSLSASVGDRVTITCRASQGISSWLAWYQQKPEKAPKSLIYAASSLQSGVPSRFSGSGSGTDFTLTISSLQPEDFATYYCQQYNIYPYTFGQGTKLEIK | 1.16 | 28.7 | 95.7 | 9.64 | 219 | 216 | 211 | 121 | 13.8
2 | H5L10 (antibody, human IgG1, kappa, V domains shown, human IgG1 / kappa constant regions; also called humanized antibody H5L10) VH: EVQLVQSGAEVKKPGESLKISCQSSGYSFTTYWIGWVRQMPGQGLEWIGIMSPVDSDIRYNPMFRGQVTMSVDKSSSTAYLQWSSLKASDTAMYYCARRRPGQGYFDFWGQGTMVTVSS VL: EIVLTQSPATLSASPGERATISCRASQSVGSWLAWYQQKPGQAPRSLIYAASNLQSGIPARFSGSGSGTDFTLTISSLEPEDFAVYYCQQYNIYPYTFGQGTRLEIKR | 0.7 | 31.6 | 87.5 | 11.9 | 223 | 230 | 221 | 81.6 | 15.7
3 | H5L9 (antibody, human IgG1, kappa, V domains shown, human IgG1 (P01857) / kappa (P01834) constant regions; also called humanized antibody H5L9) VH: EVQLVQSGAEVKKPGESLKISCQSSGYSFTTYWIGWVRQMPGQGLEWIGIMSPVDSDIRYNPMFRGQVTMSVDKSSSTAYLQWSSLKASDTAMYYCARRRPGQGYFDFWGQGTMVTVSS VL: DIQMTQSPSSLSASVGDRVTITCKASQNVGSWLAWYQQKPGKAPKSLIYSASSRQSGVPSRFSGSGSGTDFTLTISSLQPEDFATYYCQQYDIYPFTFGQGTKLEIKR | 4.25 | 117 | 159 | 104 | 222 | 221 | 217 | 184 | 153
4 | H5L14 (antibody, human IgG1, kappa, V domains shown, human IgG1 / kappa constant regions; also called humanized antibody H5L14) VH: EVQLVQSGAEVKKPGESLKISCQSSGYSFTTYWIGWVRQMPGQGLEWIGIMSPVDSDIRYNPMFRGQVTMSVDKSSSTAYLQWSSLKASDTAMYYCARRRPGQGYFDFWGQGTMVTVSS VL: EIVLTQSPATLSASPGERATISCRASQSVSSWLAWYQQKPGQAPRSLIYAASNLQSGIPARFSGSGSGTDFTLTISSLEPEDFAVYYCQQYNIYPFTFGQGTRLEIKR | 0.881 | 34.9 | 113 | 14.1 | 218 | 216 | 203 | 95.6 | 23.6
5 | H5L11 (antibody, human IgG1, kappa, V domains shown, human IgG1 / kappa constant regions; also called humanized antibody H5L11) VH: EVQLVQSGAEVKKPGESLKISCQSSGYSFTTYWIGWVRQMPGQGLEWIGIMSPVDSDIRYNPMFRGQVTMSVDKSSSTAYLQWSSLKASDTAMYYCARRRPGQGYFDFWGQGTMVTVSS VL: EIVLTQSPATLSASPGERATISCRASQSVSSWLAWYQQKPGQAPRSLIYSASNLQSGIPARFSGSGSGTDFTLTISSLEPEDFAVYYCQQYNIYPYTFGQGTRLEIKR | 0.864 | 33 | 103 | 12.9 | 219 | 224 | 219 | 97.6 | 20.2
6 | H5L12 (antibody, human IgG1, kappa, V domains shown, human IgG1 / kappa constant regions; also called humanized antibody H5L12) VH: EVQLVQSGAEVKKPGESLKISCQSSGYSFTTYWIGWVRQMPGQGLEWIGIMSPVDSDIRYNPMFRGQVTMSVDKSSSTAYLQWSSLKASDTAMYYCARRRPGQGYFDFWGQGTMVTVSS VL: EIVLTQSPATLSASPGERATISCRASQSVSSWLAWYQQKPGQAPRSLIYAASNRQSGIPARFSGSGSGTDFTLTISSLEPEDFAVYYCQQYNIYPYTFGQGTRLEIKR | 0.775 | 31.8 | 86.6 | 12.3 | 221 | 234 | 211 | 88.5 | 15.8

Source: patent publication US20220298235A1 (AKESO BIOPHARMA, published 2022)
